# Experimental data: patent US20260201327A1
# Molecular target: CD40 in the antibody expressing cells (rabbit plasmablasts from peripheral blood) (rabbit)
# Assay: cell-based or functional assay
"B cell growth after 7 days, batch sort in BM1, Fc-CD40-L against LZ-CD40-L (18 kDa) (% higher than LZ-CD40-L (18 kDa))","B cell growth after 7 days, batch sort in BM1, cytokines + CD40-L construct 7.5 ug/ml, against the reference EL4-B5 + TSN (% more than reference)","cell growth after 7 days, batch sort in BM1, cytokines + Fc-CD40-L 7.5 ug/ml (#4) against the reference TSN + EL4-B5 (% higher than reference)","cell growth after 7 days, batch sort in BM2, 2.5 ug/ml Fc-CD40-L (#12) against 7.5 ug/ml (#10)","cell growth after 7 days, batch sort in BM2, 5.0 ug/ml Fc-CD40-L (#11) against 7.5 ug/ml (#10)","cell growth after 7 days, batch sort in BM2, cytokines + 2.5 ug/ml Fc-CD40-L (#12) against the reference #9 (% lower than reference)","cell growth after 7 days, batch sort in BM2, cytokines + 5.0 ug/ml Fc-CD40-L (#11) against the reference #9 (% lower than reference)","cell growth after 7 days, batch sort in BM2, cytokines + 7.5 ug/ml Fc-CD40-L (#10) against the reference TSN + EL4-B5 (#9) (% higher than reference)","B cell growth after 7 days, batch sort in BM1, cytokines + CD40-L construct 7.5 ug/ml, against the reference EL4-B5 + TSN (% of reference)","DoE parameter estimate for plasmablast proliferation (cell number after 7 days, 50 cells per well, feeder cell and TSN replacement)",Substance
32,43,23,1.4 times lower,1.1 times lower,27,5,6,–,–,Fc-CD40-L (human IgG1-Fc fragment linked to the 18 kDa rabbit CD40-L fragment) (Fc fusion)
–,–,–,–,–,–,–,–,68,139,LZ-CD40-L EctoD (ligand)
